± gives the uncertainty stated by the source.
Experiment: protein stability index of a GFP-peptide fusion (yeast GPS) (PSI 1-4); higher = more stable; sorted into four equal gates, so the index is relative within each strain
How it was run: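 Tiled yeast protein peptides of 17 residues were each joined downstream of GFP, on plasmids that also express Cherry. The pooled library was maintained in yeast, and mid-log cultures in leucine-free medium were sorted into four equal gates on the GFP/Cherry ratio. Plasmids from every gate were amplified by PCR and sequenced on Illumina, with barcodes linking reads to strains. The protein stability index of a peptide is its gate-number-weighted read frequency summed over the gates.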

Sequence | protein stability index (doa10∆) | protein stability index (pdr5∆) | protein stability index (san1∆) | protein stability index (ubr1∆)
GKRQLMKAVGEYMKRHP [SEC65] | 2.73 ± 0.082 | 3.31 ± 0.091 | 2.94 ± 0.071 | 2.47 ± 0.086
AKIYPGRGTLFVRGDSK [RPL24A] | 1.1 ± 0.075 | 1.77 ± 0.12 | 1.97 ± 0.15 | 2.04 ± 0.085
LSGNPLTSVTNDICSVE [SIR4] | 2.54 ± 0.068 | 2.95 ± 0.064 | 3.09 ± 0.058 | 2.96 ± 0.062
NNNPLQQQSSQNTVPNV [GAL11] | 2.65 ± 0.046 | 2.86 ± 0.041 | 3 ± 0.033 | 2.82 ± 0.03
IGIAGAHRVRDLMDEEL [SKI6] | 3.38 ± 0.13 | 3.36 ± 0.11 | 2.94 ± 0.088 | 3.07 ± 0.13
FLKLVLSESPVDFEKFE [SIN4] | 2.58 ± 0.047 | 2.69 ± 0.069 | 2.66 ± 0.07 | 2.7 ± 0.067
NEEATPIPSSETKADGI [RRP6] | 3.04 ± 0.053 | 3.18 ± 0.058 | 3.04 ± 0.049 | 3.01 ± 0.04
NLDNLQKVSQLESADKQ [POP4] | 3.06 ± 0.1 | 2.59 ± 0.1 | 3.01 ± 0.092 | 2.86 ± 0.18
TNAAFPFHDPEARLFNI [ECM29] | 3.04 ± 0.1 | 2.87 ± 0.12 | 2.42 ± 0.11 | 2.38 ± 0.072
RVHRRNNRWAENNYKKR [RPS23A] | 3.26 ± 0.29 | 3.55 ± 0.21 | – | 3.54 ± 0.1
ERAARVAAKIAALAGQQ [RPL5] | 2.71 ± 0.13 | 3.03 ± 0.17 | 2.57 ± 0.15 | 3.11 ± 0.079
KSKFNKSNRSYSIALSN [GAL11] | 2.85 ± 0.075 | 2.47 ± 0.13 | 3.1 ± 0.12 | 2.81 ± 0.064
LIENCKKRNMPLQSIPE [SWI1] | 2.86 ± 0.068 | 2.86 ± 0.056 | 3.01 ± 0.051 | 3.05 ± 0.046
LLCALDRKDQDDRDHFG [RPB2] | 3.22 ± 0.096 | 3.28 ± 0.067 | 2.71 ± 0.1 | 3.47 ± 0.05
ANMATVPSTTNVNMTVN [MED6] | 2.92 ± 0.099 | 3.08 ± 0.084 | – | 2.93 ± 0.052
LSEYLTKFQTTDRESYP [YCS4] | – | 3.28 ± 0.2 | – | 2.94 ± 0.14
KVKHDSQPFIKFLNFRP [SSN2] | 2.88 ± 0.06 | 2.6 ± 0.063 | 2.49 ± 0.079 | 2.63 ± 0.041
ILEDFRVIKDFKKLNSK [YMR153W/NUP53] | 3.15 ± 0.11 | 3.32 ± 0.12 | 3.58 ± 0.055 | 3.29 ± 0.063
WHIEETGEWFSSYEEFL [ITC1] | 2.31 ± 0.072 | 2.63 ± 0.077 | 2.59 ± 0.066 | 2.53 ± 0.063
VKDKQSKVSDDSESESG [RPN8] | 1.97 ± 0.11 | 2.78 ± 0.13 | – | 2.9 ± 0.13
IHQNAGRLLRAMFEICL [BRR2] | 1.85 ± 0.053 | 1.75 ± 0.054 | 2.21 ± 0.063 | 2.83 ± 0.048
YEKNFEATLESKLKEEE [ESC2] | 3.09 ± 0.12 | 3.13 ± 0.17 | 3.03 ± 0.071 | 3.18 ± 0.13
GTSLKVAPVSEIVNMVP [SIR2] | 2.24 ± 0.089 | 2.65 ± 0.089 | 2.7 ± 0.069 | 2.37 ± 0.058
LLGPTLEDHTPPEDKPN [QCR10] | 2.5 ± 0.057 | 2.81 ± 0.064 | 2.94 ± 0.082 | 2.94 ± 0.033
RHLEKEGIIKPISKHSK [RPS25A] | 3.04 ± 0.084 | 3.28 ± 0.093 | 2.96 ± 0.084 | 3.01 ± 0.076
SADYEILYEIRALYTPF [YDL116W/NUP84] | 1.86 ± 0.073 | 2.21 ± 0.068 | 2.5 ± 0.07 | 2.06 ± 0.066
DLISKKTKTSLLPTIKR [RPR2] | 3.09 ± 0.079 | 2.58 ± 0.073 | 2.58 ± 0.086 | 2.74 ± 0.063

Sequence | protein stability index (doa10∆) | protein stability index (pdr5∆) | protein stability index (san1∆) | protein stability index (ubr1∆)
DQFHRDTISAITHQLNN [RPC25] | 1.54 ± 0.049 | 2.12 ± 0.057 | 1.84 ± 0.076 | 1.67 ± 0.034
VDVQAPTDDKTLKPTFS [YOR098C/NUP1] | 3.05 ± 0.15 | 3.23 ± 0.18 | 3.16 ± 0.19 | 3.27 ± 0.076
RNEKIAVHVTVRGPKAE [RPL11A] | 2.54 ± 0.067 | 2.3 ± 0.061 | 1.93 ± 0.12 | 2.62 ± 0.053
TEAEETSIHSTISILAA [RRP43] | 1.28 ± 0.043 | 1.63 ± 0.045 | 1.77 ± 0.068 | 1.37 ± 0.035
QPIVTGTSVISMKYDNG [PRE4] | 2.1 ± 0.25 | 2.69 ± 0.23 | 1.93 ± 0.15 | 2 ± 0.2
VAEGKSKQDASPKPYAV [RPL8A] | 3.04 ± 0.12 | 3.29 ± 0.059 | 3.04 ± 0.07 | 3.02 ± 0.058
YLHQNWVLHRDLKPANI [SSN3] | 2.23 ± 0.12 | 2.74 ± 0.13 | 2.72 ± 0.23 | 2.38 ± 0.14
KKFNMGKEFEARNLIED [RPC53] | 2.81 ± 0.11 | 2.72 ± 0.087 | 3.04 ± 0.083 | 2.56 ± 0.14
DSYLILDTLPSEFDSRV [RPT5] | 2.83 ± 0.09 | 3.48 ± 0.12 | 3.23 ± 0.062 | 3.1 ± 0.036
IMVLDASIGQAAEQQSK [SRP54] | – | 2.78 ± 0.29 | 3.18 ± 0.1 | 2.97 ± 0.13
NILWRIADKTTYDKETI [SIR4] | 3.2 ± 0.12 | 3.16 ± 0.084 | 2.98 ± 0.1 | 3.17 ± 0.052
TINGKVNGRTKSNTIPV [GAL11] | 3 ± 0.091 | 2.77 ± 0.12 | 3.02 ± 0.099 | 3.19 ± 0.097
HIGHSALKGPVRDKLDE [DPB4] | 3.29 ± 0.085 | 3.18 ± 0.068 | 3.11 ± 0.084 | 3.2 ± 0.083
SVTETESISQTPISNEQ [SRP68] | 2.89 ± 0.099 | 3.01 ± 0.078 | 2.82 ± 0.063 | 2.96 ± 0.082
SVINVSAQRDRRYRKRN [RPS17B] | – | 3.04 ± 0.25 | 3.23 ± 0.24 | –
KWDDLNEQLTLLSKKHG [RPN5] | 2.67 ± 0.099 | 2.92 ± 0.083 | 2.58 ± 0.063 | 2.94 ± 0.055
RVMKSLSINEKDFVTMA [YCG1] | 2.35 ± 0.073 | 2.06 ± 0.052 | 2.1 ± 0.082 | 2.16 ± 0.042
PQYNMNMGMNNMNNGGK [PGD1] | 3.42 ± 0.21 | 3.48 ± 0.19 | 3.16 ± 0.11 | 3.24 ± 0.083
STIDANFADKYDEVKKH [RPL8A] | 2.5 ± 0.12 | 3.08 ± 0.11 | 2.92 ± 0.081 | 2.93 ± 0.1
DADTEDPHSASLINSHL [RPC82] | 2.9 ± 0.084 | 3.27 ± 0.085 | 2.97 ± 0.078 | 3 ± 0.13
NHFSLSYKDSGLWGFST [COR1] | 2.96 ± 0.077 | 3.23 ± 0.073 | 3.15 ± 0.046 | 3.02 ± 0.054
LVELMFIRSTNSWFDVT [FAS1] | 1.65 ± 0.092 | 1.98 ± 0.072 | 1.72 ± 0.2 | 1.51 ± 0.044
VNNRDSEKGFSKEQIHG [YCS4] | – | 3.49 ± 0.18 | – | –
LKIQFILSTTLDPTDDE [SIN4] | 2.04 ± 0.1 | 2.33 ± 0.081 | 2.12 ± 0.067 | 2.81 ± 0.099
MFFIKDLSLNITLHPSF [RPB7] | – | 1.97 ± 0.16 | – | 2.24 ± 0.26
FELCSLGDKELWPVAIG [YJR042W/NUP85] | – | – | – | 2.49 ± 0.28
HSKRELDSGDDQPQSSE [BRR2] | 3.33 ± 0.073 | 3.38 ± 0.069 | 3.18 ± 0.057 | 3.19 ± 0.051

Sequence | protein stability index (doa10∆) | protein stability index (pdr5∆) | protein stability index (san1∆) | protein stability index (ubr1∆)
SSNPLGITGNLDRIPMH [COB] | 2.62 ± 0.098 | 2.52 ± 0.077 | 2.44 ± 0.065 | 2.49 ± 0.094
SNLQRAQNVPMNIIQQQ [GAL11] | 2.47 ± 0.052 | 2.55 ± 0.047 | 2.34 ± 0.078 | 2.34 ± 0.031
SSAHLIRINDEPILGQI [YML103C/NUP188] | 2.59 ± 0.084 | 2.9 ± 0.077 | 2 ± 0.14 | 2.45 ± 0.069
TSGTSSEQFNVWDWNNW [GAL11] | 2.56 ± 0.086 | 3.11 ± 0.11 | 2.71 ± 0.073 | 2.73 ± 0.096
TWIQQFKSTMLQVSEKD [ARP7] | 1.89 ± 0.065 | 1.86 ± 0.066 | 1.27 ± 0.14 | 1.73 ± 0.053
DTLLLLPTDGGLTSRLQ [POP4] | 3.01 ± 0.14 | 3.06 ± 0.15 | 3.13 ± 0.095 | 3.26 ± 0.13
KNVGNKSPEQCILRFLQ [SWI3] | 2.15 ± 0.062 | 2.67 ± 0.051 | 2.31 ± 0.083 | 1.84 ± 0.033
EVTDKNYYYLFDKKSFF [PRP8] | 2.92 ± 0.056 | 2.44 ± 0.043 | 2.9 ± 0.041 | 2.84 ± 0.04
APQVYIITKNENFLKEV [GAL11] | 3.37 ± 0.24 | – | – | 3.5 ± 0.19
EYQIVYYNPQAGTKITI [RGR1] | 2.15 ± 0.13 | 2.1 ± 0.22 | 2.12 ± 0.13 | 2.45 ± 0.1
VKNNQELDQEYRSCETQ [SMC4] | 2.95 ± 0.2 | – | – | –
CSNPTCGAGVFLANHKD [RPS31] | 3.06 ± 0.12 | 2.82 ± 0.21 | 2.57 ± 0.24 | 2.73 ± 0.14
TDDYFEELRDLYQTYHV [FAS1] | 3.09 ± 0.22 | 2.69 ± 0.076 | 3.33 ± 0.15 | 3.37 ± 0.11
LQELIVNGPNVHPGANY [RPO31] | 2.83 ± 0.071 | 2.99 ± 0.092 | 2.99 ± 0.072 | 2.45 ± 0.047
PLAKKQTVRLIKDLQRA [SIR2] | 2.77 ± 0.08 | 3.01 ± 0.07 | 2.77 ± 0.057 | 2.97 ± 0.062
ETKSWINESAENFSNGI [MED1] | 3.04 ± 0.062 | 2.72 ± 0.047 | 2.74 ± 0.056 | 2.77 ± 0.042
QMIQQRHQQLLRSRLQQ [SNF5] | 2.08 ± 0.12 | 2.14 ± 0.15 | 2.71 ± 0.15 | 3.02 ± 0.12
AKGLVAYHQKYVDEQSK [RPS16A] | 2.03 ± 0.085 | 2.12 ± 0.056 | 2.52 ± 0.089 | 1.11 ± 0.034
SSASPSALTSPTDSSKI [SIR3] | 2.71 ± 0.048 | 3.08 ± 0.055 | 2.87 ± 0.045 | 2.72 ± 0.033
LDTLPSEFDSRVKAMEV [RPT5] | 2.93 ± 0.085 | 3.11 ± 0.098 | 3.2 ± 0.068 | 3.36 ± 0.1
NIATQQNMQQSLQQMQH [GAL11] | 2.75 ± 0.076 | 2.92 ± 0.091 | 2.68 ± 0.17 | 2.86 ± 0.069
IMERIKSSLSLRDHALS [ITC1] | 2.24 ± 0.12 | 2.53 ± 0.053 | 2.7 ± 0.18 | 2.65 ± 0.06
LQYIIHDTLNNEIANSI [BRR2] | 2.67 ± 0.057 | 2.69 ± 0.076 | 2.86 ± 0.077 | 2.76 ± 0.056
TSVDGKKRSKVRKETYS [HTB2] | 3.04 ± 0.087 | 3.19 ± 0.14 | 3.15 ± 0.18 | 3.31 ± 0.067
GNGKLSEHFLYLAKELN [RPN1] | 3.06 ± 0.23 | 2.19 ± 0.18 | 2.42 ± 0.2 | 2.98 ± 0.29
MYILGMCVSKGNASLKY [YCG1] | 1.79 ± 0.083 | 2.42 ± 0.12 | 1.58 ± 0.11 | 2.17 ± 0.091

— the supplement of paper PMC9732359
